Data from patent publication US20100119506A1 (published 2010).
Changes are numbered by the printed parent chain.

Columns and labels:
[1] = molecular target: T1, PAR-4 peptide (SEQ ID NO:44); assay: ELISA on peptide
T1 peptide: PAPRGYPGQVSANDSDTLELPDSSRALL

[2] = molecular target: T2, PAR-2 peptide (SEQ ID NO:42) coupled to Transferrin as carrier (coupled to Transferrin as carrier); assay: ELISA on peptide
T2 construct: Transferrin carrier not further described
T2 peptide: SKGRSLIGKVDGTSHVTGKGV

[3] = molecular target: labeled peptide representing the N-terminus of PAR-2 (FRET assay); assay: cell-based or functional assay
Rat PAR-2 peptide [4] = molecular target: T3, Rat PAR-2 peptide (rat); assay: Rat PAR-2 Peptide Binding (Kinexa)
T3 peptide: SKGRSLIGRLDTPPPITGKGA
Procedure: (§1) Binding to peptide in solution was determined by Kinexa technology.

Cynomolgus PAR-2 peptide = molecular target: T4, Cynomolgus PAR-2 peptide (cynomolgus); assay: Kinexa, peptide in solution
T4 peptide: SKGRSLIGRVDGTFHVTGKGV
Procedure: as §1

Murine PAR-2 peptide [5] = molecular target: T5, Murine PAR-2 peptide (murine); assay: Kinexa, peptide in solution
T5 construct: also called mouse PAR-2 peptide
T5 peptide: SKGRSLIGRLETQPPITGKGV
Procedure: as §1

Rat PAR-2 peptide [6] = molecular target: T3, Rat PAR-2 peptide; assay: Kinexa, peptide in solution
Procedure: as §1

Murine PAR-2 peptide [7] = molecular target: T5, Murine PAR-2 peptide; assay: Mouse PAR-2 Peptide Binding (Kinexa)
Procedure: as §1

Human PAR-2 on cells [8] = molecular target: T6, Human PAR-2 on cells (human, UniProt P55085 26-397); assay: cell binding, Fab against IgG4p of the same clone
T6 construct: also called HEK-PAR-2 (#3); human PAR-2 transfected HEK293 cells
T6 sequence: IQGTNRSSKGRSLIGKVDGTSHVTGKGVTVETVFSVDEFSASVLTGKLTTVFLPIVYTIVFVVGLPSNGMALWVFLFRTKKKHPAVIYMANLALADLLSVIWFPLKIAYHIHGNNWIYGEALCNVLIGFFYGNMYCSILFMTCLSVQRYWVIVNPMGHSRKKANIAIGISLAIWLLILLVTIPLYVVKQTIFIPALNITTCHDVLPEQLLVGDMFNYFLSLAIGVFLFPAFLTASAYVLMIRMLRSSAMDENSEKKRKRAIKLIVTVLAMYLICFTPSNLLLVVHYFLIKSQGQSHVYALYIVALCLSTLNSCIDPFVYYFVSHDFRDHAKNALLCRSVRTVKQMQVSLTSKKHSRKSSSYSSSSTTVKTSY

Human PAR-2 on cells [9] = molecular target: T6, Human PAR-2 on cells; assay: binding of Fab to PAR-2 transfected HEK cells (HEK-PAR-2 #3)
[10] = molecular target: T7, PAR-1 peptide (SEQ ID NO:43); assay: ELISA on peptide
T7 peptide: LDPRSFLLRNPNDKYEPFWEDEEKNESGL

Human PAR-2 on cells [11] = molecular target: T6, Human PAR-2 on cells; assay: binding of IgG4p to PAR-2 transfected HEK cells (HEK-PAR-2 #3)
Human PAR-2 on cells [12] = molecular target: T6, Human PAR-2 on cells; assay: cell binding of IgG4_Pro, HEK-PAR-2 (#3)
[13] = molecular target: T8, FLAG-tagged PAR-2 over-expressed on HEK transfectants (Homo sapiens (Human), UniProt P55085 37-397); assay: cell-based or functional assay
T8 sequence: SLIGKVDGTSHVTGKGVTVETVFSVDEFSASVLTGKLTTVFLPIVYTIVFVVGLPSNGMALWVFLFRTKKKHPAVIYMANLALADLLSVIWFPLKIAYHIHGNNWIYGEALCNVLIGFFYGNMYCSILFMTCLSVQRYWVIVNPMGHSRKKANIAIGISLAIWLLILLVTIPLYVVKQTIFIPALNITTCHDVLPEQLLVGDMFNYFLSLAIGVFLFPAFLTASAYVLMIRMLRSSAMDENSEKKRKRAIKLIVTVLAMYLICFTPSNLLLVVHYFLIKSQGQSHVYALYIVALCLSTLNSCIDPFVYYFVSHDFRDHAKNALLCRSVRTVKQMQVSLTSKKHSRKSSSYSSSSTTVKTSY

Human PAR-2 on cells [14] = molecular target: T6, Human PAR-2 on cells; assay: cell-based or functional assay
[15] = molecular target: T9, Human PAR-2 peptide (SEQ ID NO:1, Residues 33-54) (human); assay: Kinexa, peptide in solution
T9 peptide: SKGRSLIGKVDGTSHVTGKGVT
Procedure: as §1

B1: Ab4996 IgG4_Pro (antibody, V domains shown)
VH: QVQLVESGGGLVQPGGSLRLSCAASGFTFSNHAMHWVRQAPGKGLEWVSAISHPGKFTYYADSVKGRFTISRDNSKNTLYLQMNSLRAEDTAVYYCARHGDGMDYFDFWGQGTLVTVSS
VL: DIELTQPPSVSVAPGQTARISCSGDNIGTKYVYWYQQKPGQAPVLVIYDDNNRPSGIPERFSGSNSGNTATLTISGTQAEDEADYYCQSYDSQTMVFGGGTKLTVLG
notes: IgG4_Pro (human IgG4 constant regions, Ser241Pro hinge), lambda; also called IgG4p Ab4996
B1 was tested, and the binding result [1] was “no binding”, the binding result [2] was “binds” and the “FRET Peptide Cleavage IC50” value [3] was under 30 nM.

B2: Antibody Par-D (antibody, V domains shown)
VH: B1 VH with Q3E
VL: B1 VL
notes: Codon-optimized version of Ab4996
B2 showed a Kd (Rat PAR-2 peptide [4]) of 0.04 nM, a Kd (Cynomolgus PAR-2 peptide) of 0.14 nM and a Kd (Murine PAR-2 peptide [5]) of 0.42 nM. It also gave a Kd (Rat PAR-2 peptide [6]) of 0.04 nM and a Kd (Murine PAR-2 peptide [7]) of 0.42 nM.

B3: Ab4994 Fab (Fab, V domains shown)
VH: QVELVESGGGLVQPGGSLRLSCAASGFTFSSYAMNWVRQAPGKGLEWVSAISYSGHLTGYADSVKGRFTISRDNSKNTLYLQMNSLRAEDTAVYYCARIQNDPMDVWGQGTLVTVSS
VL: DIELTQPPSVSVAPGQTARISCSGDNLGKKYVQWYQQKPGQAPVLVIYDDSNRPSGIPERFSGSNSGNTATLTISGTQAEDEADYYCSSWDVGSDGWVFGGGTKLTVLG
notes: Fab
B3 was tested, and the “Ratio of EC50 Fab / EC50 IgG” value (Human PAR-2 on cells [8]) was 4.8 and the EC50 (Human PAR-2 on cells [9]) was 1.9 nM.

B4: Ab4999 IgG4_Pro (antibody, V domains shown)
VH: B3 VH with E3Q, A50T, G55S, H56S, L57A, G59S
VL: DIELTQPPSVSVAPGQTARISCSGDNLGKKYVQWYQQKPGQAPVLVIYDDSNRPSGIPERFSGSNSGNTATLTISGTQAEDEADYYCQTWDYSSIRDETNVFGGGTKLTVLG
notes: IgG4_Pro (human IgG4 constant regions, Ser241Pro hinge), lambda; also called IgG4p Ab4999
B4: no binding [1]; no binding [10]; binds [2]. For the same binder, the EC50 (Human PAR-2 on cells [11]) was 0.2 nM, the EC50 (Human PAR-2 on cells [12]) was 0.2 nM and the “FLAG Cell-Based Cleavage Approx. IC50” value [13] was under 1 nM. The “FLIPR A549 cells IC50” value (Human PAR-2 on cells [14]) was 3.1 nM and the “FRET Peptide Cleavage IC50” value [3] was under 30 nM.

B5: Ab5007 Fab (Fab, V domains shown)
VH: B3 VH with Y53F
VL: B3 VL
notes: Fab
For B5, the “Ratio of EC50 Fab / EC50 IgG” value (Human PAR-2 on cells [8]) was 19.3 and the EC50 (Human PAR-2 on cells [9]) was 9.66 nM.

B6: Ab5006 Fab (Fab, V domains shown)
VH: B3 VH with S49G, Y53F, S54D, H56M
VL: B3 VL
notes: Fab
With B6 the EC50 (Human PAR-2 on cells [9]) was 11.9 nM.

B7: Ab5003 IgG4_Pro (antibody, V domains shown)
VH: B3 VH with E3Q, S54K
VL: B3 VL
notes: IgG4_Pro (human IgG4 constant regions, Ser241Pro hinge), lambda; also called IgG4p Ab5003
With B7 the EC50 (Human PAR-2 on cells [11]) was 0.46 nM, the EC50 (Human PAR-2 on cells [12]) was 0.5 nM and the “FLAG Cell-Based Cleavage Approx. IC50” value [13] was under 1 nM. The “FLIPR A549 cells IC50” value (Human PAR-2 on cells [14]) was 2.3 nM and the “FRET Peptide Cleavage IC50” value [3] was under 30 nM.

B8: Ab5151 IgG4_Pro (cross-cloned: light chain of Ab4999 with heavy chain of Ab5007) (antibody, V domains shown)
VH: B3 VH with E3Q, Y53F
VL: B4 VL
notes: IgG4_Pro format
B8: no binding [1]; no binding [10]; binds [2]. The EC50 (Human PAR-2 on cells [12]) was 0.4 nM, the “FLAG Cell-Based Cleavage Approx. IC50” value [13] was under 1 nM and the “FLIPR A549 cells IC50” value (Human PAR-2 on cells [14]) was 4 nM. For the same binder, the “FRET Peptide Cleavage IC50” value [3] was under 30 nM.

B9: Ab5149 IgG4_Pro (cross-cloned: light chain of Ab4999 with heavy chain of Ab4997) (antibody, V domains shown)
VH: B3 VH with E3Q, S54N, H56K, T58K
VL: B4 VL
notes: IgG4_Pro format
B9 was tested, and the EC50 (Human PAR-2 on cells [12]) was 0.7 nM, the “FLAG Cell-Based Cleavage Approx. IC50” value [13] was under 1 nM and the “FLIPR A549 cells IC50” value (Human PAR-2 on cells [14]) was 3.3 nM. For the same binder, the “FRET Peptide Cleavage IC50” value [3] was under 30 nM.

B10: Ab4994 IgG4_Pro (antibody, V domains shown)
VH: B3 VH with E3Q
VL: B3 VL
notes: IgG4_Pro: variable regions fused to human IgG4 constant regions with Ser241Pro in the hinge, lambda light chain; also called IgG4p Ab4994
B10 was tested, and the EC50 (Human PAR-2 on cells [11]) was 0.4 nM, the EC50 (Human PAR-2 on cells [12]) was 0.4 nM and the “FLAG Cell-Based Cleavage Approx. IC50” value [13] was under 1 nM. The “FLIPR A549 cells IC50” value (Human PAR-2 on cells [14]) was 2.2 nM and the “FRET Peptide Cleavage IC50” value [3] was under 30 nM.

B11: Ab5005 IgG4_Pro (antibody, V domains shown)
VH: B3 VH with E3Q, A50T, G55S, H56S, L57A, G59S
VL: DIELTQPPSVSVAPGQTARISCSGDNLGKKYVQWYQQKPGQAPVLVIYDDSNRPSGIPERFSGSNSGNTATLTISGTQAEDEADYYCQSWALVGSSESNVFGGGTKLTVLG
notes: IgG4_Pro (human IgG4 constant regions, Ser241Pro hinge), lambda; also called IgG4p Ab5005
B11 was tested, and the EC50 (Human PAR-2 on cells [11]) was 0.06 nM, the EC50 (Human PAR-2 on cells [12]) was 0.1 nM and the “FLAG Cell-Based Cleavage Approx. IC50” value [13] was under 1 nM. The “FLIPR A549 cells IC50” value (Human PAR-2 on cells [14]) was 2.5 nM and the “FRET Peptide Cleavage IC50” value [3] was under 30 nM.

B12: Ab4997 IgG4_Pro (antibody, V domains shown)
VH: B3 VH with E3Q, S54N, H56K, T58K
VL: B3 VL
notes: IgG4_Pro (human IgG4 constant regions, Ser241Pro hinge), lambda; also called IgG4p Ab4997
B12 was tested, and the EC50 (Human PAR-2 on cells [11]) was 0.38 nM, the EC50 (Human PAR-2 on cells [12]) was 0.4 nM and the “FLAG Cell-Based Cleavage Approx. IC50” value [13] was under 1 nM. For the same binder, the “FLIPR A549 cells IC50” value (Human PAR-2 on cells [14]) was 2.4 nM and the “FRET Peptide Cleavage IC50” value [3] was under 30 nM.

B13: Ab4997 Fab (Fab, V domains shown)
VH: B3 VH with S54N, H56K, T58K
VL: B3 VL
notes: Fab
With B13 the “Ratio of EC50 Fab / EC50 IgG” value (Human PAR-2 on cells [8]) was 8 and the EC50 (Human PAR-2 on cells [9]) was 3.03 nM.

B14: Ab4999 Fab (Fab, V domains shown)
VH: B3 VH with A50T, G55S, H56S, L57A, G59S
VL: B4 VL
notes: Fab
With B14 the “Ratio of EC50 Fab / EC50 IgG” value (Human PAR-2 on cells [8]) was 0.3 and the EC50 (Human PAR-2 on cells [9]) was 0.06 nM.

B15: Ab5003 Fab (Fab, V domains shown)
VH: B3 VH with S54K
VL: B3 VL
notes: Fab
In the case of B15, the “Ratio of EC50 Fab / EC50 IgG” value (Human PAR-2 on cells [8]) is reported as 15.3 and the EC50 (Human PAR-2 on cells [9]) is reported as 7.03 nM.

B16: Antibody Par-C (antibody, V domains shown)
VH: B3 VH with Y53F
VL: B4 VL
notes: Codon-optimized version of Ab5151
Work on B16 yielded a Kd [15] of 0.03 nM and a Kd (Murine PAR-2 peptide [5]) of 0.03 nM.

B17: Ab5150 IgG4_Pro (cross-cloned: light chain of Ab4999 with heavy chain of Ab5003) (antibody, V domains shown)
VH: B3 VH with E3Q, S54K
VL: B4 VL
notes: IgG4_Pro format
For B17, the EC50 (Human PAR-2 on cells [12]) was 0.3 nM, the “FLAG Cell-Based Cleavage Approx. IC50” value [13] was under 1 nM and the “FLIPR A549 cells IC50” value (Human PAR-2 on cells [14]) was 2.3 nM. The “FRET Peptide Cleavage IC50” value [3] was under 30 nM.

B18: Ab5007 IgG4_Pro (antibody, V domains shown)
VH: B3 VH with E3Q, Y53F
VL: B3 VL
notes: IgG4_Pro (human IgG4 constant regions, Ser241Pro hinge), lambda; also called IgG4p Ab5007
B18 was tested, and the EC50 (Human PAR-2 on cells [11]) was 0.5 nM, the EC50 (Human PAR-2 on cells [12]) was 0.5 nM and the “FLAG Cell-Based Cleavage Approx. IC50” value [13] was under 1 nM. For the same binder, the “FLIPR A549 cells IC50” value (Human PAR-2 on cells [14]) was 3.7 nM and the “FRET Peptide Cleavage IC50” value [3] was under 30 nM.
